Measured values taken from patent publication US20070189962A1 (GOV OF US AS REPRESENTED BY THE SEC OF HEALTH, published 2007).

Columns and labels:
[1] = target: CD22 (human) (UniProt P20273); assay: cell-based or functional assay
[2] = target: mesothelin (UniProt Q13421); assay: cell-based or functional assay
[3] = target: T1, CD22 (human, UniProt P20273 20-847); assay: monoclonal phage FACS on Daudi cells
T1 construct: whole, on cells; also called native CD22(αβ) on Daudi cells; CD22 antigen
T1 sequence (looked up): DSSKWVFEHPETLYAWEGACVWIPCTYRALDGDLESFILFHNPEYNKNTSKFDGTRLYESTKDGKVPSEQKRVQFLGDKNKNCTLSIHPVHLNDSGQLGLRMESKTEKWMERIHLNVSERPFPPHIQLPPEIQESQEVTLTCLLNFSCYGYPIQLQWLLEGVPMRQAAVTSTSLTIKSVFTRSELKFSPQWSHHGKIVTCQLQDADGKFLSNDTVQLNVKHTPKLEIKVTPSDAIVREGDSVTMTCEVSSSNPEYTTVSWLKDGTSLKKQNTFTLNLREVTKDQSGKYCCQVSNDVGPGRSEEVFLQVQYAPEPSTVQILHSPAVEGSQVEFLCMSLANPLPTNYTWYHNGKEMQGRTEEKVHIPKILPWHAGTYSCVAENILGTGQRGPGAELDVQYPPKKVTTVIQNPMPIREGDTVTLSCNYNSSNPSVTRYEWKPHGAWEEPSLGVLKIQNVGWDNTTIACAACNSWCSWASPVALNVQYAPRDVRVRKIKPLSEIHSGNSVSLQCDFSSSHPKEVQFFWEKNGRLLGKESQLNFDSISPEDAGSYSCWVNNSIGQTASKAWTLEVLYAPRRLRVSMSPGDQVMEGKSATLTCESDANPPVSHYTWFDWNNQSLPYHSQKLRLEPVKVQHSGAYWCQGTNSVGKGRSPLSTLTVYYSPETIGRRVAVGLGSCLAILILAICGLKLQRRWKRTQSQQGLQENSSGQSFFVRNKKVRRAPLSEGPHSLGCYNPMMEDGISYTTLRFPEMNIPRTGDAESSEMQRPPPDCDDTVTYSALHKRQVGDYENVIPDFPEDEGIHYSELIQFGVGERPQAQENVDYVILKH

[4] = target: T1, CD22; assay: monoclonal phage FACS on Daudi cells; HA22 is the reference that the mutants exceed

Chain of mesothelin (Q13421 other isoform, or with tags, fused parts or gaps limits assumed): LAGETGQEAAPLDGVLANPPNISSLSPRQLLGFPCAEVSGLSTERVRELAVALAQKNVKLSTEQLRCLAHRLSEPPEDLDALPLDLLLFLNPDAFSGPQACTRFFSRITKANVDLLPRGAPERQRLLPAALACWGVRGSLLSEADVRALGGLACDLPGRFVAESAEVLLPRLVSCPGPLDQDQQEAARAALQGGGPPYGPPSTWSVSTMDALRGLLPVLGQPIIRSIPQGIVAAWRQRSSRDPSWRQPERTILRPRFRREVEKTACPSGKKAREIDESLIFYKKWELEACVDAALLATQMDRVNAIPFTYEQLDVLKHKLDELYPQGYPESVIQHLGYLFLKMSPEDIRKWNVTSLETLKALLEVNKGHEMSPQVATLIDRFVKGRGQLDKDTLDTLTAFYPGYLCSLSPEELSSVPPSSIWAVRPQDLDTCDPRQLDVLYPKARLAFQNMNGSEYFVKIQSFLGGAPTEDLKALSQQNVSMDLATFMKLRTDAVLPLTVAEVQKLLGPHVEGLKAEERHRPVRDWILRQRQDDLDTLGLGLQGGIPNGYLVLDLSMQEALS

Work on RFB4 (dsFv)-PE38 yielded a Cytotoxicity activity (IC50), protein synthesis inhibition, Daudi [1] of 2.8 ng/mL and a Cytotoxicity activity (IC50), protein synthesis inhibition, Raji [1] of 2.5 ng/mL.

With HA22 RFB4 (scFv)-PE38 immunotoxin the Cytotoxic Activity (IC50), Daudi (30 min incubation) [1] was 5.6 ng/mL, the Cytotoxic Activity (IC50), Daudi, 16 hr, protein synthesis [1] was 0.52 ng/mL and the Cytotoxic Activity (IC50), Namalwa [1] was 1.2 ng/mL. For the same molecule, the Cytotoxic Activity (IC50), Ramos [1] was 4.9 ng/mL.

With SS1P the IC50, inhibition of protein synthesis, A431/K5 [2] was 0.7 ng/mL and the IC50, inhibition of protein synthesis, A1847 [2] was 4 ng/mL.

HA22 (R490A) was tested, and the Cytotoxicity activity (IC50), protein synthesis inhibition, Daudi [1] was 0.2 ng/mL and the Cytotoxicity activity (IC50), protein synthesis inhibition, Raji [1] was 0.3 ng/mL.

SS1P (R490A) gave an IC50, inhibition of protein synthesis, A431/K5 [2] of 0.45 ng/mL and an IC50, inhibition of protein synthesis, A1847 [2] of 1.5 ng/mL.

B1: B5 (scFv displayed on phage) (scFv, V domains shown)
VH: EVQLVESGGGLVKPGGSLKLSCAASGFAFSIYDMSWVRQTPEKRLEWVAYISSGGGTTYYPDTVKGRFTISRDNAKNTLYLQMSSLKSEDTAMYYCARHSGYGTHWGVLFAYWGQGTLVTVSA
VL: DIQMTQTTSSLSASLGDRVTISCRASQDIHGYLNWYQQKPDGTVKLLIYYTSILHSGVPSRFSGSGSGTDYSLTISNLEQEDFATYFCQQGNTLPWTFGGGTKLEIK
notes: also called mutant B5; L-CDR1 HG mutant of HA22
B1: binds [3].

B2: E6 (scFv displayed on phage) (scFv, V domains shown)
VH: EVQLVESGGGLVKPGGSLKLSCAASGFAFSIYDMSWVRQTPEKRLEWVAYISSGGGTTYYPDTVKGRFTISRDNAKNTLYLQMSSLKSEDTAMYYCARHSGYGTHWGVLFAYWGQGTLVTVSA
VL: DIQMTQTTSSLSASLGDRVTISCRASQDIGRYLNWYQQKPDGTVKLLIYYTSILHSGVPSRFSGSGSGTDYSLTISNLEQEDFATYFCQQGNTLPWTFGGGTKLEIK
notes: also called L-CDR1 GR mutant of HA22
B2: binds [3].

B3: HA22 (scFv displayed on phage) (scFv, V domains shown)
VH: EVQLVESGGGLVKPGGSLKLSCAASGFAFSIYDMSWVRQTPEKRLEWVAYISSGGGTTYYPDTVKGRFTISRDNAKNTLYLQMSSLKSEDTAMYYCARHSGYGTHWGVLFAYWGQGTLVTVSA
VL: DIQMTQTTSSLSASLGDRVTISCRASQDISNYLNWYQQKPDGTVKLLIYYTSILHSGVPSRFSGSGSGTDYSLTISNLEQEDFATYFCQQGNTLPWTFGGGTKLEIK
notes: also called starting molecule; RFB4 with SSY of H-CDR3 mutated to THW
B3: binds [4].

B4: B8 (scFv displayed on phage) (scFv, V domains shown)
VH: EVQLVESGGGLVKPGGSLKLSCAASGFAFSIYDMSWVRQTPEKRLEWVAYISSGGGTTYYPDTVKGRFTISRDNAKNTLYLQMSSLKSEDTAMYYCARHSGYGTHWGVLFAYWGQGTLVTVSA
VL: DIQMTQTTSSLSASLGDRVTISCRASQDIRGYLNWYQQKPDGTVKLLIYYTSILHSGVPSRFSGSGSGTDYSLTISNLEQEDFATYFCQQGNTLPWTFGGGTKLEIK
notes: also called L-CDR1 RG mutant of HA22
B4: binds [3].

B5: D8 (scFv displayed on phage) (scFv, V domains shown)
VH: EVQLVESGGGLVKPGGSLKLSCAASGFAFSIYDMSWVRQTPEKRLEWVAYISSGGGTTYYPDTVKGRFTISRDNAKNTLYLQMSSLKSEDTAMYYCARHSGYGTHWGVLFAYWGQGTLVTVSA
VL: DIQMTQTTSSLSASLGDRVTISCRASQDIARYLNWYQQKPDGTVKLLIYYTSILHSGVPSRFSGSGSGTDYSLTISNLEQEDFATYFCQQGNTLPWTFGGGTKLEIK
notes: also called L-CDR1 AR mutant of HA22
B5: binds [3].
